The target of test [1] is T1, human kallikrein 2 (hK2) (human, UniProt P20151 25-261). The experiment in a line: cell-based or functional assay.
Test [2] deals with prostate specific antigen (PSA, hK3) (human, UniProt P07288 25-261). The experiment in a line: cell-based or functional assay.
In test [3] the target is T2, human chymotrypsin (Chtr) (human, UniProt P17538 19-263). The experiment in a line: cell-based or functional assay.
Test [4] deals with T3, human plasma kallikrein (PK) (human, UniProt P03952 20-638). As to the kind of experiment: cell-based or functional assay.
Test [5] has as its target T4, human neutrophil elastase (HNE) (human, UniProt P08246 30-247, limits assumed).
T4 sequence (looked up): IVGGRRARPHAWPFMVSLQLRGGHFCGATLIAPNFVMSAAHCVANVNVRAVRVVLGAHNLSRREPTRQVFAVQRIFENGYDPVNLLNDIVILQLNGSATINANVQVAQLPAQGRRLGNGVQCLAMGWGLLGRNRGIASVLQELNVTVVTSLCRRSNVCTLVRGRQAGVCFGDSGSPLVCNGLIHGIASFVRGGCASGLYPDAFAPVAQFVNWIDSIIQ
The experiment in a line: cell-based or functional assay.

Test [6] has as its target thrombin. As to the kind of experiment: cell-based or functional assay.
The target in test [7] is T5, human kallikrein 14 (hK14) (human, UniProt Q9P0G3 25-251, limits assumed).
T5 sequence (looked up): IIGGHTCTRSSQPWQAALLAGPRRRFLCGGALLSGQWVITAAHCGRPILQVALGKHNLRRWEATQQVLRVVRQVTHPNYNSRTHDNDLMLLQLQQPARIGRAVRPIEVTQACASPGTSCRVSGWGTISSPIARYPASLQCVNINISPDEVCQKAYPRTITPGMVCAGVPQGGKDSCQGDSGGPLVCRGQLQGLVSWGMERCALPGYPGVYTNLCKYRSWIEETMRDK
The experiment in a line: cell-based or functional assay.

In the next test the target is T6, human kallikrein 5 (hK5) (human, UniProt Q9Y337 67-293, limits assumed).
T6 sequence (looked up): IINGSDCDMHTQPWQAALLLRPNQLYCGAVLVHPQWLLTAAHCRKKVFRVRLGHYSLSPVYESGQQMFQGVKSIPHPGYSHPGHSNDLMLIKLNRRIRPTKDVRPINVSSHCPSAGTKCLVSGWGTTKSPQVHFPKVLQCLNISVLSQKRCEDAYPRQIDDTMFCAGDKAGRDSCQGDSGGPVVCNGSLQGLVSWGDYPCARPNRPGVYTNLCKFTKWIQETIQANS
The experiment in a line: cell-based or functional assay.

The next test deals with human kallikrein 6 (hK6) (human, UniProt Q92876 22-244). The experiment in a line: cell-based or functional assay.
In another test the target is T7, human kallikrein 8 (hK8) (human, UniProt O60259 33-260).
T7 sequence (looked up): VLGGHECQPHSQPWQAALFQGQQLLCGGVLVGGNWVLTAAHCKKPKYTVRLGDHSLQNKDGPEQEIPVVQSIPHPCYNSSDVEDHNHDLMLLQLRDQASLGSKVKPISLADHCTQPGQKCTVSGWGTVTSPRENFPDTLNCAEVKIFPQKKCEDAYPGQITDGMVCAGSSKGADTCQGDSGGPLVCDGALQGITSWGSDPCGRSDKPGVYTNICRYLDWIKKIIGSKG
The experiment in a line: cell-based or functional assay.

The target in test [8] is T8, human kallikrein 13 (hK13) (human, UniProt Q9UKR3 26-277, limits assumed).
T8 sequence (looked up): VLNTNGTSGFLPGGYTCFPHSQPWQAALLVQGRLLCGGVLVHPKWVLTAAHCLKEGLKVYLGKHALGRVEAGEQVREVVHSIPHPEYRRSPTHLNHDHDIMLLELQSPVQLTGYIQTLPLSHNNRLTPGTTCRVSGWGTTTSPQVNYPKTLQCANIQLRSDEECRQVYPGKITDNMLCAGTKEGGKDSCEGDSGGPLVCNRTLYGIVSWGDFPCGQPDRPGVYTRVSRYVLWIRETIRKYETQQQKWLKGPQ
The experiment in a line: cell-based or functional assay.

Test [9] has as its target T2, human chymotrypsin (Chtr). The experiment in a line: cell-based or functional assay. This is another data set of the same source.
Test [10] has as its target T3, human plasma kallikrein (PK). The experiment in a line: cell-based or functional assay. This is another data set of the same source.
Test [11] has as its target T9, urokinase plasminogen activator (uPA) (UniProt P00749 21-431, limits assumed). As to the kind of experiment: cell-based or functional assay.
In test [12] the target is T4, human neutrophil elastase (HNE). As to the kind of experiment: cell-based or functional assay. This is another data set of the same source.
The target of test [13] is thrombin. The experiment in a line: cell-based or functional assay. This is another data set of the same source.
For test [14], the target named is T5, human kallikrein 14 (hK14). As to the kind of experiment: cell-based or functional assay. The source holds these as a separate data set.
Test [15] deals with T5, human kallikrein 14 (hK14). As to the kind of experiment: residual hK14 activity against [I0]/[E0]. The protocol:
(§1) SI values of rAAT, rACT, and their variants were determined with hK14 incubating the protease with varying concentrations of inhibitor. After an incubation of 4 hours at 37° C. in reaction buffer (50 mM Tris, pH 7.5, 150 mM NaCl, 0.05% Triton X-100, 0.01% BSA), the residual activity was detected by the addition of fluorescent substrate (Boc-Val-Pro-Arg-AMC). Fluorescence was measured with excitation at 340 nm (±15) and emission at 485 nm (±10) in black 96 well plates using a microplate fluorescence reader FLₓ800 (Bio-Tek Instruments, Inc.). The SI value corresponds to the abscissa intercept of the linear regression analysis of fractional velocity (velocity of inhibited enzyme reaction (vi)/velocity of uninhibited enzyme reaction (v₀)) vs. the molar ratio of the inhibitor to enzyme ([I₀]/[E₀]).

Test [16] deals with T5, human kallikrein 14 (hK14). As to the kind of experiment: residual hK14 activity after 4 h at 37 C against [I0]/[E0]. The protocol:
as §1

In test [17] the target is T1, human kallikrein 2 (hK2). As to the kind of experiment: cell-based or functional assay. This is another data set of the same source.
A further test concerns the target human kallikrein hK1 (human, UniProt P06870 25-262). As to the kind of experiment: cell-based or functional assay.
Test [18] concerns the target T3, human plasma kallikrein (PK). The experiment in a line: cell-based or functional assay. The source holds these as a separate data set.
Test [19] addresses T9, urokinase plasminogen activator (uPA). The experiment in a line: cell-based or functional assay. This is another data set of the same source.
Test [20] concerns the target T1, human kallikrein 2 (hK2). As to the kind of experiment: progress curve, pseudo-first order, fluorogenic substrate. As for the experimental part: (§2) Under these conditions, a fixed amount of enzyme (2 nM) was mixed with different concentrations of inhibitor (0-800 nM) and an excess of substrate (10 μM). Each reaction was made in reaction buffer (50 mM Tris pH 7.5, 150 mM NaCl, 0,05% Triton X-100, 0.01% BSA) at 25° C. for 45 min and the rate of product formation was measured using a FLₓ800 fluorescence 96-well microplate reader (Biotek, USA). In this model, inhibition is considered to be irreversible over the course of reaction and the progress of enzyme activity is expressed by product formation (P), beginning at a rate (vz) and is inhibited over time (t) at a first-order rate (kobs), rate constant that is dependent only on inhibitor concentration.

Test [21] has as its target T3, human plasma kallikrein (PK). The description is as above. The protocol: as §2
Test [22] concerns the target T1, human kallikrein 2 (hK2). The experiment in a line: residual enzyme activity against [I]o/[E]o, fluorogenic substrate. As for the experimental part: (§3) The stoichiometry of inhibition (SI) values were determined for the inhibition of rACTWT and its variants with hK2 and different other enzymes. An initial test was made with a molar excess of rACT (100 fold) over hK2, PSA, hK1, chymotrypsin (Chtr), plasma kallikrein (PK), urokinase (uPA) and human neutrophile elastase (HNE) enzymes. The reaction was carried out for 30 min at 25° C. (90 min at 37° C. for PSA) in reaction buffer (50 mM Tris pH 7.5, 150 mM NaCl, 0,05% Triton X-100, 0.01% BSA) and residual enzyme activity was measured by adding fluorescent substrates (Z-Phe-Arg-AMC for hK1, hK2 and PK, Suc-Ala-Ala-Pro-Phe-AMC for Chtr, Z-Gly-Gly-Arg-AMC for uPA, MeOSuc-Ala-Ala-Pro-Val-AMC for HNE, and CFP-TFRSA-YFP (TFRSA SEQ ID NO:137) for PSA). Activity of enzyme in presence of inhibitors was compared to uninhibited reaction. For reactions where an inhibition was observed, SI was determined by incubating different concentrations of recombinant serpins. Using linear regression analysis of fractional activity (velocity of inhibited enzyme reaction/velocity of uninhibited enzyme reaction) versus the molar ratio of the inhibitor to enzyme ([Iₒ]/[Eₒ]), the stoichiometry of inhibition, corresponding to the abscissa intercept, was obtained.

Test [23] addresses T3, human plasma kallikrein (PK). Described as above. The protocol:
as §3

Residue numbers refer to the chain shown, from its start.

T3 sequence (P03952 20-638 limits assumed): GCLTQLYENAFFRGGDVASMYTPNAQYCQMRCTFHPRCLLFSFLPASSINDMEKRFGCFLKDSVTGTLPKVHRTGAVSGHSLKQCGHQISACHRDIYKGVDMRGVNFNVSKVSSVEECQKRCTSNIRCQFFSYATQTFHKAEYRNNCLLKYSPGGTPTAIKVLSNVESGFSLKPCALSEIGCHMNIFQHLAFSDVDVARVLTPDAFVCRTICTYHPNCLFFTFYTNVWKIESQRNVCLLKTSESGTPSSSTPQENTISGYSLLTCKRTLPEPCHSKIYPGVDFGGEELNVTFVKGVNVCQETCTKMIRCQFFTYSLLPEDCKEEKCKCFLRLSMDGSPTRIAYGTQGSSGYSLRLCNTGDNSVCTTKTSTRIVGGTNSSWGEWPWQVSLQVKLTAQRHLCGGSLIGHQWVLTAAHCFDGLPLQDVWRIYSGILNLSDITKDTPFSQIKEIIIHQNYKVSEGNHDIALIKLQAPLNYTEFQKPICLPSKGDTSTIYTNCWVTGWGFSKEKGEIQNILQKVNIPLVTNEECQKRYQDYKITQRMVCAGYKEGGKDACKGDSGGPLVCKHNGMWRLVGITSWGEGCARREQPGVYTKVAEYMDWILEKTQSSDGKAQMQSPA
T2 sequence (P17538 19-263): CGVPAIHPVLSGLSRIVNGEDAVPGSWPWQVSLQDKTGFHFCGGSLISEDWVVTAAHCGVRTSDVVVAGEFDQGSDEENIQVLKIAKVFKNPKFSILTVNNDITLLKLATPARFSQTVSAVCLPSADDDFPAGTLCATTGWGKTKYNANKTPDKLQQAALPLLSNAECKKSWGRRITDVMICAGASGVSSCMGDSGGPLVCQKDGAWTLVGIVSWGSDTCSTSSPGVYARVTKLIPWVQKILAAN

B1: AATE8 (other, human)
chain: HHHHHHEDPQGDAAQKTDTSHHDQDHPTFNKITPNLAEFAFSLYRQLAHQSNSTNIFFSPVSIATAFAMLSLGTKADTHDEILEGLNFNLTEIPEAQIHEGFQELLRTLNQPDSQLQLTTGNGLFLSEGLKLVDKFLEDVKKLYHSEAFTVNFGDTEEAKKQINDYVEKGTQGKIVDLVKELDRDTVFALVNYIFFKGKWERPFEVKDTEEEDFHVDQVTTVKVPMMKRLGMFNIQHCKKLSSWVLLMKYLGNATAIFFLPDEGKLQHLENELTHDIITKFLENEDRRSASLHLPKLSITGTYDLKSVLGQLGITKVFSNGADLSGVTEEAPLKLSKAVHKAVLTIDEKGTEAAGAMFLEALQRAIPPEVKFNKPFVFLMIEQNTKSPLFMGKVVNPTQK
notes: mature; also called rAATE8
The term % Inhibition denotes the drop in the measured response relative to a control, in per cent. Read a high % Inhibition as strong suppression. Regarding B1, the Percentage inhibition was 19% in the test with human kallikrein 2 (hK2) [1]; 0% in test [2]; 19% in [3]; 100% in [4]; 0% in test [5]; 0% with thrombin [6]. For the same molecule, the Percentage inhibition was 100% in test [7]; 100% with human kallikrein 5 (hK5); 100% in the test with human kallikrein 6 (hK6); 36% in the test with human kallikrein 8 (hK8); 30% in test [8]. In addition, the “% Inhibition” value in test [9] was found to be 19%; in test [10], 100%; in [11], 0%; in test [12] it was 0%; with thrombin [13], 0%; in test [14] it was 100%. The “SI (stoichiometry of inhibition)” value in [15] and in [16] was 7.4 in each case.

B2: AATG9 (other, human)
chain: B1 chain with A361T, L362V, Q363D, R364Y
notes: mature; also called rAATG9
For B2, the Percentage inhibition is 0% with human kallikrein 2 (hK2) [1]; 0% in test [2]; 100% in test [3]; 0% in test [4]; 0% in [5]; 0% with thrombin [6]. Further, the Percentage inhibition in test [7] stood at 100%; with human kallikrein 5 (hK5), 30%; with human kallikrein 6 (hK6), 0%; in the test with human kallikrein 8 (hK8), 0%; in test [8] it was 0%. Besides, the “% Inhibition” value was 100% in test [9]; 0% in test [10]; 0% in test [11]; 0% in test [12]; 0% with thrombin [13]; 100% in test [14]. For the same molecule, the “SI (stoichiometry of inhibition)” value in test [15] and in [16] was 1.2 in each case.

B3: rACT6.2 (other)
chain: MRGSHHHHHHSRHPNSPLDEENLTQENQDRGTHVDLGLASANVDFAFSLYKQLVLKAPDKNVIFSPLSISTALAFLSLGAHNTTLTEILKGLKFNLTETSEAEIHQSFQHLLRTLNQSSDELQLSMGNAMFVKEQLSLLDRFTEDAKRLYGSEAFATDFQDSAAAKKLINDYVKNGTRGKITDLIKDLDSQTMMVLVNYIFFKAKWEMPFDPQDTHQSRFYLSKKKWVMVPMMSLHHLTIPYFRDEELSCTVVELKYTGNASALFILPDQDKMEEVEAMLLPETLKRWRDSLEFREIGELYLPKFSISRDYNLNDILLQLGIEEAFTSKADLSGITGARNLAVSQVVHKAVLDVFEEGTEASAATAVKITRRSIDVETRTIVRFNRPFLMIIVPTDTQNIFFMSKVTNPKQA
notes: recombinant ACT variant, RSL substrate peptide RRSID; N-terminal His tag, E. coli TG1; also called MD62; MD 62
Broadly, the kon is a measure of how fast the partners come together. A high value points to fast association. In the case of B3, the INHIBITION % worked out at 100% with human kallikrein 2 (hK2) [17], 0% with human kallikrein hK1, 100% in [18] and 0% in test [19]. For the same molecule, the kon with human kallikrein 2 (hK2) [20] is 6260 M⁻¹ s⁻¹; in test [21], 6220 M⁻¹ s⁻¹. The figures for the “SI (stoichiometry of inhibition)” value (with human kallikrein 2 (hK2) [22]; in test [23]) were 25 and 18, respectively.

For the origin of these results see patent publication US20140341881A1 (DERMADIS, published 2014).
